Patent US20040146964

How the values were obtained:
[1] = target: full length HIF-1α double mutant P402A+P564G
[2] = target: human HIF-1α, full length wild type
[3] = target: T1, C. elegans HIF-α homologue, wild type
T1 chain: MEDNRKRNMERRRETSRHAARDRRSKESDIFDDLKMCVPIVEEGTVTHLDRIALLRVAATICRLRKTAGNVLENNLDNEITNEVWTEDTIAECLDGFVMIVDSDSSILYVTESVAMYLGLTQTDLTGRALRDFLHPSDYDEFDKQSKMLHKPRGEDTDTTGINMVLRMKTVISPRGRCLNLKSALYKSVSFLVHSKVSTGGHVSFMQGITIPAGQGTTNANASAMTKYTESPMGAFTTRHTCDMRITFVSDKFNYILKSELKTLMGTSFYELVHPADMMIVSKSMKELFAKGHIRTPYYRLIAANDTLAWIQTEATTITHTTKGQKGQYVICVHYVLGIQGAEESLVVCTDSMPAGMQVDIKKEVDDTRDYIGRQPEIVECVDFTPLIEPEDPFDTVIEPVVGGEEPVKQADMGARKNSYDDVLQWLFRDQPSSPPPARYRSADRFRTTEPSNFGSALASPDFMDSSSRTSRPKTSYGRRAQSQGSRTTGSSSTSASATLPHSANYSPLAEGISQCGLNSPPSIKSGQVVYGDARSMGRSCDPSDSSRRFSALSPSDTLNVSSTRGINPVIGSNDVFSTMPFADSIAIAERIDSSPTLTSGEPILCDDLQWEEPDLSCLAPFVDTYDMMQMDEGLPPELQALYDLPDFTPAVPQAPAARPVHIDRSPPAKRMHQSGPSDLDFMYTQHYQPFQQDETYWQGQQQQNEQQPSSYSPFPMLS

[4] = target: T2, synthetic polypeptide of HIF-1α residues 556-574, unmodified
T2 chain: DLDLEMLAPYIPMDDDFQL

Sequence of full length HIF-1α P402A (chain, as listed by the source P402A): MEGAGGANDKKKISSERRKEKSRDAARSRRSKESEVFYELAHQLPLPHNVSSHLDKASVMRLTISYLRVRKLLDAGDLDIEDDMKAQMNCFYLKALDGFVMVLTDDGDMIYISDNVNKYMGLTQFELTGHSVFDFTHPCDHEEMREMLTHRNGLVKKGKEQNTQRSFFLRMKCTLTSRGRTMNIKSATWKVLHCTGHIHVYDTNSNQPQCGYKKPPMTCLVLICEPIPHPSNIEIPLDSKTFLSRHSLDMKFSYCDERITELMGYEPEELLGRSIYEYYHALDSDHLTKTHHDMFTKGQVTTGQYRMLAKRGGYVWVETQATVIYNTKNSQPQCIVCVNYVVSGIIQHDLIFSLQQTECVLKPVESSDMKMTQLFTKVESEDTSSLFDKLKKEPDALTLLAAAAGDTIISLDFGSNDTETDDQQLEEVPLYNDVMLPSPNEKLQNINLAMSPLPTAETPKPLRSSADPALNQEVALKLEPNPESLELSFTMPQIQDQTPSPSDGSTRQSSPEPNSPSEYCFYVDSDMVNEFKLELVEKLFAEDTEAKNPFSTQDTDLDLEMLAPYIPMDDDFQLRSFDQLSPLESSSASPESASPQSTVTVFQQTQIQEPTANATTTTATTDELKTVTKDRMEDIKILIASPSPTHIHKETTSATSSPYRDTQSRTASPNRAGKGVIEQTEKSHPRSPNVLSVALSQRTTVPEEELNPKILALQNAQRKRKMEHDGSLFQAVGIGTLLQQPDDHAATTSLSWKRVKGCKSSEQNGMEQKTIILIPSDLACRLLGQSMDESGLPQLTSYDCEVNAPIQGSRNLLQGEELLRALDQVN
Sequence of full length HIF-1α double mutant P402A+P564G (chain, as listed by the source P402A P564G): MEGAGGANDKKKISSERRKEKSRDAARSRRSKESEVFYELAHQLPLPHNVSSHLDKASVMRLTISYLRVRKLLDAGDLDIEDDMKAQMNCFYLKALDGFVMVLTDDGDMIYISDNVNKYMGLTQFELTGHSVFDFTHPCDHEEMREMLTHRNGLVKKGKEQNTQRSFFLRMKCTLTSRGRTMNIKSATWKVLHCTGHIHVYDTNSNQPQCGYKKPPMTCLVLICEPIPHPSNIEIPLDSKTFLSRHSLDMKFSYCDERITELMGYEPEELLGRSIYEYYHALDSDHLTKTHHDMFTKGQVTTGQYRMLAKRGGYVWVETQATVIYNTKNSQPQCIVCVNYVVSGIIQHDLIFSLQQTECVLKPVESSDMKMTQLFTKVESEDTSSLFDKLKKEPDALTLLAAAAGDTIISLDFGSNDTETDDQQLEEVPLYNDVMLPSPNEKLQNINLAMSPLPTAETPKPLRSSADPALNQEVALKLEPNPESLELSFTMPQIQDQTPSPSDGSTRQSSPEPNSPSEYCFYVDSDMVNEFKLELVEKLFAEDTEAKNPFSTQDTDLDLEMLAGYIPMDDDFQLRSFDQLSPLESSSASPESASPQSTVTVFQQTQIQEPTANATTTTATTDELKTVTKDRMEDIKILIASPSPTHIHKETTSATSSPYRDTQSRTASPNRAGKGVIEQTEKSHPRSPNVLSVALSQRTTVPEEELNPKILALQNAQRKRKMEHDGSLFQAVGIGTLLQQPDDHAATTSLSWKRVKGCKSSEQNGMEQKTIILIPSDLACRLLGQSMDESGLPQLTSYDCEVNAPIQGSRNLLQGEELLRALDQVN
Sequence of full length HIF-1α P564G (chain, as listed by the source P564G): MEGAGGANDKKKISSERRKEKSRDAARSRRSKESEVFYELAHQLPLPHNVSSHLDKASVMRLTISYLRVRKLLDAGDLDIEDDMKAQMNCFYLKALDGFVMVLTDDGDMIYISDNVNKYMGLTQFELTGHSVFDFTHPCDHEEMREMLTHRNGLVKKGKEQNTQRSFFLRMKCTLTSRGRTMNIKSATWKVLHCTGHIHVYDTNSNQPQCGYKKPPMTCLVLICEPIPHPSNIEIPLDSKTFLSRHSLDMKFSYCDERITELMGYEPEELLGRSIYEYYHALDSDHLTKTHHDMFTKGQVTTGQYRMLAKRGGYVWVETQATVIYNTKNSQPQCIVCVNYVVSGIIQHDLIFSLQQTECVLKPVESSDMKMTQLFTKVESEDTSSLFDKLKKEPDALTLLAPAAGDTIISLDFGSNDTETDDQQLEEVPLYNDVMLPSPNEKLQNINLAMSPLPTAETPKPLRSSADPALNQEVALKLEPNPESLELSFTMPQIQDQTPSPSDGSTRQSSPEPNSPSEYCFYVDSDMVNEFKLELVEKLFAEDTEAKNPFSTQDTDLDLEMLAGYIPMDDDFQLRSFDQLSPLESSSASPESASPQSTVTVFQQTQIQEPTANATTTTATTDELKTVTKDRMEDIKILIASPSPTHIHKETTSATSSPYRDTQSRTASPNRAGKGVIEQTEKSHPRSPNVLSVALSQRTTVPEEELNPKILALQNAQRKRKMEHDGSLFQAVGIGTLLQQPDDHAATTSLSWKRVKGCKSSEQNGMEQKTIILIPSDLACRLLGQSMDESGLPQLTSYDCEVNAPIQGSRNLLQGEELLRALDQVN

Protein	promotion of VHL E3 capture (negative) [1]	promotion of VHL E3 capture via the C-terminal (P564) site (full length HIF-1α P402A)	promotion of the HIFα/VHL E3 interaction (anti-HA IP with 786-0/VHL extract) [2]	also measured
human PHD2 (protein) MANDSGGPGGPSPSERDRQYCELCGKMENLLRCSRCRSSFYCCKEHQRQDWKKHKLVCQGSEGALGHGVGPHQHSGPAPPAAVPPPRAGAREPRKAAARRDNASGDAAKGKVKAKPPADPAAAASPCRAAAGGQGSAVAAEAEPGKEEPPARSSLFQEKANLYPPSNTPGDALSPGGGLRPNGQTKPLPALKLALEYIVPCMNKHGICVVDDFLGKETGQQIGDEVRALHDTGKFTDGQLVSQKSDSSKDIRGDKITWIEGKEPGCETIGLLMSSMDDLIRHCNGKLGSYKINGRTKAMVACYPGNGTGYVRHVDNPNGDGRCVTCIYYLNKDWDAKVSGGILRIFPEGKAQFADIEPKFDRLLFFWSDRRNPHEVQPAYATRYAITVWYFDADERARAKVKYLTGEKGVRVELNKPSDSVGKDVF	No activity at all was observed with a double HIF-1α mutant, P402A P564G, that ablates both hydroxylation sites	interaction through the C-terminal site could be promoted by all enzymes	With full length wild-type HIF-1α, striking activity was observed with rat SM-20 and all three human gene products	promotion of VHL E3 capture via the N-terminal (P402) site (full length HIF-1α P564G): VHL E3 capture was less efficient when only the N-terminal site (P402) was intact, and was only promoted by EGLN2 (PHD1) and EGLN1(PHD2)
recombinant C. elegans PHY-2 (protein) DLFTAIADLQHMLGAEKDVTTIIDQYIEAERARLDDLRRYAHEYVHRNAHAESVGPEFVTNPINAYLLIKRLTTEWKKVENIMLNNKASTFLKNITDNRVRSEVKFPGEEDLSGAATALLRLQDTYSLDTLDLSNGIIGGEKVSNKLSGHDTFEVGRSAYNQKDYYHCLMWMQVALVKIENENPPTIEEWEILEYLAYSLYQQGNVRRALSLTKRLAKIAPNHPRAKGNVKWYEDMLQGKDMVGDLPPIVNKRVEYDGIVERDAYEALCRGEIPPVEPKWKNKLRCYLKRDKPFLKLAPIKVEILRFDPLAVLFKNVIHDSEIEVIKELASPKLKRATVQNSKTGELEHATYRISKSAWLKGDLDPVIDRVNRRIEDFTNLNQATSEELQVANYGLGGHYDPHFDFARKEEKNAFKTLNTGNRIATVLFYMSQPERGGATVFNHLGTAVFPSKNDALFWYNLRRDGEGDLRTRHAACPVLLGVKWVSNKWIHEKGQEFTRPCGLEEEVQENFIGDLSPYANDP				modification of HIF-1 read by HA.VHL-1 capture [3]: had no activity in these assays
recombinant human type I prolyl 4-hydroxylase (protein) chain 1: HPGFFTSIGQMTDLIHTEKDLVTSLKDYIKAEEDKLEQIKKWAEKLDRLTSTATKDPEGFVGHPVNAFKLMKRLNTEWSELENLVLKDMSDGFISNLTIQRQYFPNDEDQVGAAKALLRLQDTYNLDTDTISKGNLPGVKHKSFLTAEDCFELGKVAYTEADYYHTELWMEQALRQLDEGEISTIDKVSVLDYLSYAVYQQGDLDKALLLTKKLLELDPEHQRANGNLKYFEYIMAKEKDVNKSASDDQSDQKTTPKKKGVAVDYLPERQKYEMLCRGEGIKMTPRRQKKLFCRYHDGNRNPKFILAPAKQEDEWDKPRIIRFHDIISDAEIEIVKDLAKPRLRRATISNPITGDLETVHYRISKSAWLSGYENPVVSRINMRIQDLTGLDVSTAEELQVANYGVGGQYEPHFDFARKDEPDAFKELGTGNRIATWLFYMSDVSAGGATVFPEVGASVWPKKGTAVFWYNLFASGEGDYSTRHAACPVLVGNKWVSNKWLHERGQEFRRPCTLSELE chain 2: not shown				prolyl 4-hydroxylase activity (hydroxylation-coupled decarboxylation of 2-oxoglutarate) [4]: the HIF polypeptide showed no activity
recombinant C. elegans PHY-1 (protein) DLFTSIADMQNLLETERNIPKILDKYIHDEEERLVQLKKLSEEYSKKNEISIENGLKDITNPINAFLLIKRKIFDWKEIESKMNANKAGNVVSSITDDSYGVRYPTADDLSGAAIGLLRLQDTYRLDTKDLADGKIYADQGNYTFSAKDCFEIARAAYNEHDFYHTVMWMEEAQRRLGDEVEPTVEVEDILEYLAFALYKQNNLKHALKLTEELYKMNPTHPRAKGNVKWYEDLLEQEGVRRSDMRKNLPPIQNRRPDSVLGNTERTMYEALCRNEVPVSQKDISRLYCYYKRDRPFLVYAPIKVEIKRFNPLAVLFKDVISDDEVAAIQELAKPKLARATVHDSVTGKLVTATYRISKSAWLKEWEGDVVETVNKRIGYMTNLEMETAEELQIANYGIGGHYDPHFDHAKKEESKSFESLGTGNRIATVLFYMSQPSHGGGTVFTEAKSTILPTKNDALFWYNLYKQGDGNPDTRHAACPVLVGIKWVSNKWIHEKGNEFRRPCGLKSSDYERFVGDLGYGPEPRNAPNVSPNLAKDVWETL				modification of HIF-1 read by HA.VHL-1 capture [3]: had no activity in these assays
rat SM-20, full length (protein) MPLGHIMRLDLEKIALEYIVPCLHEVGFCYLDNFLGEVVGDCVLERVKQLHYNGALRDGQLAGPRAGVSKRHLRGDQITWIGGNEEGCEAINFLLSLIDRLVLYCGSRLGKYYVKERSKAMVACYPGNGTGYVRHVDNPNGDGRCITCIYYLNKNWDAKLHGGVLRIFPEGKSFVADVEPIFDRLLFSWSDRRNPHEVQPSYATRYAMTVWYFDAEERAEAKKKFRNLTRKTESALAKD	No activity at all was observed with a double HIF-1α mutant, P402A P564G, that ablates both hydroxylation sites	interaction through the C-terminal site could be promoted by all enzymes	With full length wild-type HIF-1α, striking activity was observed with rat SM-20 and all three human gene products	
human PHD3 (protein) MPLGHIMRLDLEKIALEYIVPCLHEVGFCYLDNFLGEVVGDCVLERVKQLHCTGALRDGQLAGPRAGVSKRHLRGDQITWIGGNEEGCEAISFLLSLIDRLVLYCGSRLGKYYVKERSKAMVACYPGNGTGYVRHVDNPNGDGRCITCIYYLNKNWDAKLHGGILRIFPEGKSFIADVEPIFDRLLFFWSDRRNPHEVQPSYATRYAMTVWYFDAEERAEAKKKFRNLTRKTESALTED	No activity at all was observed with a double HIF-1α mutant, P402A P564G, that ablates both hydroxylation sites	interaction through the C-terminal site could be promoted by all enzymes	With full length wild-type HIF-1α, striking activity was observed with rat SM-20 and all three human gene products	
recombinant human type II prolyl 4-hydroxylase (protein) chain 1: EFFTSIGHMTDLIYAEKELVQSLKEYILVEEAKLSKIKSWANKMEALTSKSAADAEGYLAHPVNAYKLVKRLNTDWPALEDLVLQDSAAGFIANLSVQRQFFPTDEDEIGAAKALMRLQDTYRLDPGTISRGELPGTKYQAMLSVDDCFGMGRSAYNEGDYYHTVLWMEQVLKQLDAGEEATTTKSQVLDYLSYAVFQLGDLHRALELTRRLLSLDPSHERAGGNLRYFEQLLEEEREKTLTNQTEAELATPEGIYERPVDYLPERDVYESLCRGEGVKLTPRRQKRLFCRYHHGNRAPQLLIAPFKEEDEWDSPHIVRYYDVMSDEEIERIKEIAKPKLARATVRDPKTGVLTVASYRVSKSSWLEEDDDPVVARVNRRMQHITGLTVKTAELLQVANYGVGGQYEPHFDFSRNDERDTFKHLGTGNRVATFLNYMSDVEAGGATVFPDLGAAIWPKKGTAVFWYNLLRSGEGDYRTRHAACPVLVGCKWVSNKWFHERGQEFLRPCGSTEVD chain 2: not shown				prolyl 4-hydroxylase activity (hydroxylation-coupled decarboxylation of 2-oxoglutarate) [4]: the HIF polypeptide showed no activity
